Measurements reported in PMC11996608 (Nature structural & molecular biology, 2025).

Experiments:
Eco RNAP β subunit = Eco RNAP β subunit (Escherichia coli, UniProt P0A8V2 1-1342); experiment: cryo-EM structure
[1] = biological target: Eco RNAP β' subunit (β'-PPX-His10) (Escherichia coli, UniProt P0A8T7 1-1407); experiment: cryo-EM structure
Eco RNAP β' subunit (β'-PPX-His10), sequence (P0A8T7 whole entry): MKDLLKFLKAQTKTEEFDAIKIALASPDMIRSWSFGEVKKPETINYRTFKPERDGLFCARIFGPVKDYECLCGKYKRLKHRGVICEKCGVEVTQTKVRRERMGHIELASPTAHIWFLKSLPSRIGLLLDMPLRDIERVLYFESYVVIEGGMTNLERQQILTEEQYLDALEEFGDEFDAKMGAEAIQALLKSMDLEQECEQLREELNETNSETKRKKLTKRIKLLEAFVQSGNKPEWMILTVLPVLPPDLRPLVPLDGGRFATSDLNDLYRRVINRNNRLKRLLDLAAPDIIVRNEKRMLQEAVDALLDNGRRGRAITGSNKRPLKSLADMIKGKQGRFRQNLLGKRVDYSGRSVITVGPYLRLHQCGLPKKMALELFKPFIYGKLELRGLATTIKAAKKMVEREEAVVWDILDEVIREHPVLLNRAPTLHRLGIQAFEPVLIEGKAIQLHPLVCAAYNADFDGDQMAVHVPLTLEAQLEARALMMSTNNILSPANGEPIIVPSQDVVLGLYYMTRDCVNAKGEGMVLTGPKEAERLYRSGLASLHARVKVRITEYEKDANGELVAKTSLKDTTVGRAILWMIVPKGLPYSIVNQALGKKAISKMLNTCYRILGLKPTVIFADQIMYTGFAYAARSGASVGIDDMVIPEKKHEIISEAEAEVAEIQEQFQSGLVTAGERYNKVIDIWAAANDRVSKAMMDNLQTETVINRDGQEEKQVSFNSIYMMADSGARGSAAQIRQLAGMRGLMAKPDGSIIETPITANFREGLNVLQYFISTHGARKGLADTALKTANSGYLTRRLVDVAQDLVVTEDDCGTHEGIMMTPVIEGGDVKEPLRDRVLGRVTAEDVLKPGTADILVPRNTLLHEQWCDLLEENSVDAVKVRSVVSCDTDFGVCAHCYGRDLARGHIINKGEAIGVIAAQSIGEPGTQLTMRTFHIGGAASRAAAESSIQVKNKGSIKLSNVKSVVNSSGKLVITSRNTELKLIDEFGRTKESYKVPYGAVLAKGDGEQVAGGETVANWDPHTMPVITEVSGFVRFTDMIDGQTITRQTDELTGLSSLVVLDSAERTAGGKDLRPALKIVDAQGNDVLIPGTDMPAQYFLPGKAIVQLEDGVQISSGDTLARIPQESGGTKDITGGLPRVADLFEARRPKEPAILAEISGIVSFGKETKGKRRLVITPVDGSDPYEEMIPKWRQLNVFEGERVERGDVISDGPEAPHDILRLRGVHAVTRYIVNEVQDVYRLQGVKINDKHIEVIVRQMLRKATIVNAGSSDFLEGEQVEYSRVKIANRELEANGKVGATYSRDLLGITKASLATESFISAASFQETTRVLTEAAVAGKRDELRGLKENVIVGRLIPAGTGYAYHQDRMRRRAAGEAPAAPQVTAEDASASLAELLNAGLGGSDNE

Eco RNAP β subunit, sequence (P0A8V2 whole entry): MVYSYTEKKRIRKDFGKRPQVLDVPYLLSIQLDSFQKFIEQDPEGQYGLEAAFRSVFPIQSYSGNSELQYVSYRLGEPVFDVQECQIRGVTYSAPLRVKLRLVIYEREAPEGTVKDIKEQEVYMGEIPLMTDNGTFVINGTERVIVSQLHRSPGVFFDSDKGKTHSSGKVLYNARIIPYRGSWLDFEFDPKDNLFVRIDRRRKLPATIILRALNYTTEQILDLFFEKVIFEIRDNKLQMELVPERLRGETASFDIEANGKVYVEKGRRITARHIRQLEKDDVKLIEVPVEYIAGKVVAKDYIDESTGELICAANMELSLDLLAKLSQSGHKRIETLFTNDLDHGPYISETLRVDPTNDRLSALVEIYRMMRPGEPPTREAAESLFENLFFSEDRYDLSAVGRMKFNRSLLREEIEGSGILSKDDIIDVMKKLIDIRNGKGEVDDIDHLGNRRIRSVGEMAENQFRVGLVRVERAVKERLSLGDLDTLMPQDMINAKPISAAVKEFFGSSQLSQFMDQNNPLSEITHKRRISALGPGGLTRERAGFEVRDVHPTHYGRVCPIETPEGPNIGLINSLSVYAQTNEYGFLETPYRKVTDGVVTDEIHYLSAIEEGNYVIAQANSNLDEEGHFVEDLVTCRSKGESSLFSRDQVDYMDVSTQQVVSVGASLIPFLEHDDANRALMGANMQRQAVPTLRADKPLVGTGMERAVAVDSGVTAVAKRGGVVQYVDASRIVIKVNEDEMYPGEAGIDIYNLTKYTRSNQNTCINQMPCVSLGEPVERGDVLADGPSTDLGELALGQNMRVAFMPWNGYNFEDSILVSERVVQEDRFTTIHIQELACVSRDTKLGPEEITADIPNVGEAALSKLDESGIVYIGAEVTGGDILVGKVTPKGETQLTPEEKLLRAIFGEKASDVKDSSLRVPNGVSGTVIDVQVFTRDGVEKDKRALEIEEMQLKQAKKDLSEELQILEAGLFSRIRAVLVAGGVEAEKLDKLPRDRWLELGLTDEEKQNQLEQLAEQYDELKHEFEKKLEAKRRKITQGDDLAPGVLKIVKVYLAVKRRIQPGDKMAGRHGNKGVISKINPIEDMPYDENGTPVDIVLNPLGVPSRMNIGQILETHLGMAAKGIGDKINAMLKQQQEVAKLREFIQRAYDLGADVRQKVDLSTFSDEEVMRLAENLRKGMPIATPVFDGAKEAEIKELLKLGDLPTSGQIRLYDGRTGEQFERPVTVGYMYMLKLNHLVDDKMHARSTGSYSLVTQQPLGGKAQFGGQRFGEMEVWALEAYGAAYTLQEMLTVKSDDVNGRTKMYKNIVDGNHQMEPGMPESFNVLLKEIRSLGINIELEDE

B1: Eco RapA (N-terminally His6-tagged full-length RapA) (enzyme, Escherichia coli, UniProt P60240 1-968, looked up)
chain: MPFTLGQRWISDTESELGLGTVVAVDARTVTLLFPSTGENRLYARSDSPVTRVMFNPGDTITSHDGWQMQVEEVKEENGLLTYIGTRLDTEESGVALREVFLDSKLVFSKPQDRLFAGQIDRMDRFALRYRARKYSSEQFRMPYSGLRGQRTSLIPHQLNIAHDVGRRHAPRVLLADEVGLGKTIEAGMILHQQLLSGAAERVLIIVPETLQHQWLVEMLRRFNLRFALFDDERYAEAQHDAYNPFDTEQLVICSLDFARRSKQRLEHLCEAEWDLLVVDEAHHLVWSEDAPSREYQAIEQLAEHVPGVLLLTATPEQLGMESHFARLRLLDPNRFHDFAQFVEEQKNYRPVADAVAMLLAGNKLSNDELNMLGEMIGEQDIEPLLQAANSDSEDAQSARQELVSMLMDRHGTSRVLFRNTRNGVKGFPKRELHTIKLPLPTQYQTAIKVSGIMGARKSAEDRARDMLYPERIYQEFEGDNATWWNFDPRVEWLMGYLTSHRSQKVLVICAKAATALQLEQVLREREGIRAAVFHEGMSIIERDRAAAWFAEEDTGAQVLLCSEIGSEGRNFQFASHMVMFDLPFNPDLLEQRIGRLDRIGQAHDIQIHVPYLEKTAQSVLVRWYHEGLDAFEHTCPTGRTIYDSVYNDLINYLASPDQTEGFDDLIKNCREQHEALKAQLEQGRDRLLEIHSNGGEKAQALAESIEEQDDDTNLIAFAMNLFDIIGINQDDRGDNMIVLTPSDHMLVPDFPGLSEDGITITFDREVALAREDAQFITWEHPLIRNGLDLILSGDTGSSTISLLKNKALPVGTLLVELIYVVEAQAPKQLQLNRFLPPTPVRMLLDKNGNNLAAQVEFETFNRQLNAVNRHTGSKLVNAVQQDVHAILQLGEAQIEKSARALIDAARNEADEKLSAELSRLEALRAVNPNIRDDELTAIESNRQQVMESLDQAGWRLDALRLIVVTHQ
Q: Does B1 bind (Eco RNAP β subunit)?
A: binds

Q: Does B1 bind [1]?
A: binds
